Earlier results as cited in article PMC8654464.

Molecular target: SARS-CoV-2 spike protein RBD (Severe acute respiratory syndrome coronavirus 2) (UniProt P0DTC2)

For regdanvimab, the Kd is given as 0.065 nM.
